Results as given in the supplement of paper PMC11246515.
± gives the standard deviation of the averaged measurements.

Experiment: total protein half-life in vivo (active degradation + dilution); higher = more stable protein
[1] = E. coli NCM3722 delta-clpP delta-lon delta-hslV, growth: N-lim chemostat, doubling time 6 h
[2] = E. coli NCM3722 delta-clpP, growth: N-lim chemostat, doubling time 6 h
[3] = E. coli NCM3722 delta-hslV, growth: N-lim chemostat, doubling time 6 h
[4] = E. coli NCM3722 delta-lon, growth: N-lim chemostat, doubling time 6 h
[5] = E. coli NCM3722 delta-smpB, growth: N-lim chemostat, doubling time 6 h
[6] = wild type E. coli NCM3722, growth: C-lim chemostat, doubling time 3 h
[7] = wild type E. coli NCM3722, growth: C-lim chemostat, doubling time 6 h
[8] = wild type E. coli NCM3722, growth: C-lim chemostat, doubling time 12 h
[9] = wild type E. coli NCM3722, growth: N-lim chemostat, doubling time 6 h
[10] = wild type E. coli NCM3722, growth: N-lim chemostat, doubling time 12 h
[11] = wild type E. coli NCM3722, growth: P-lim chemostat, doubling time 6 h
[12] = wild type E. coli NCM3722, growth: P-lim chemostat, doubling time 12 h

| Sequence | total protein half-life in vivo [1] [h] | total protein half-life in vivo [2] [h] | total protein half-life in vivo [3] [h] | total protein half-life in vivo [4] [h] | total protein half-life in vivo [5] [h] | total protein half-life in vivo [6] [h] | total protein half-life in vivo [7] [h] | total protein half-life in vivo [8] [h] | total protein half-life in vivo [9] [h] | total protein half-life in vivo [10] [h] | total protein half-life in vivo [11] [h] | total protein half-life in vivo [12] [h] |
| --- | --- | --- | --- | --- | --- | --- | --- | --- | --- | --- | --- | --- |
| MMYRIRNWLVATLLLLCTPVGAATLSDIQVSNGNQQARITLSFIGDPDYAFSHQSKRTVALDIKQTGVIQGLPLLFSGNNLVKAIRSGTPKDAQTLRLVVDLTENGKTEAVKRQNGSNYTVVFTINADVPPPPPPPPVVAKRVETPAVVAPRVSEPARNPFKTESNRTTGVISSNTVTRPAARATANTGDKIIIAIDAGHGGQDPGAIGPGGTREKNVTIAIARKLRTLLNDDPMFKGVLTRDGDYFISVMGRSDVARKQNANFLVSIHADAAPNRSATGASVWVLSNRRANSEMASWLEQHEKQSELLGGAGDVLANSQSDPYLSQAVLDLQFGHSQRVGYDVATSMISQLQRIGEIHKRRPEHASLGVLRSPDIPSVLVETGFISNNSEERLLASDDYQQQLAEAIYKGLRNYFLAHPMQSAPQGATAQTASTVTTPDRTLPN | 2.15 ± 0.036 | 2.05 ± 0.41 | 2.71 ± 1.6 | 1.97 ± 0.085 | 1.74 ± 0.34 | 1.64 ± 0.18 | 2.63 ± 0.23 | 4.87 ± 1.5 | 2.54 ± 0.74 | 2.65 ± 0.31 | 3.4 ± 3.2 | 2.92 ± 1.1 |
| MNAKIIASLAFTSMFSLSTLLSPAHAEEQEKALNFGIISTESQQNLKPQWTPFLQDMEKKLGVKVNAFFAPDYAGIIQGMRFNKVDIAWYGNLSAMEAVDRANGQVFAQTVAADGSPGYWSVLIVNKDSPINNLNDLLAKRKDLTFGNGDPNSTSGFLVPGYYVFAKNNISASDFKRTVNAGHETNALAVANKQVDVATNNTENLDKLKTSAPEKLKELKVIWKSPLIPGDPIVWRKNLSETTKDKIYDFFMNYGKTPEEKAVLERLGWAPFRASSDLQLVPIRQLALFKEMQGVKSNKGLNEQDKLAKTTEIQAQLDDLDRLNNALSAMSSVSKAVQ | – | – | – | – | – | – | – | – | – | – | 1.02 ± 0.21 | 2.63 ± 1.1 |
| MNAPFTYSSPTLSVEALKHSIAYKLMFTIGKDPVVANKHEWLNATLFAVRDRLVERWLRSNRAQLSQETRQVYYLSMEFLIGRTLSNAMLSLGIYEDVQGALEAMGLNLEELIDEENDPGLGNGGLGRLAACFLDSLATLGLPGRGYGIRYDYGMFKQNIVNGSQKESPDYWLEYGNPWEFKRHNTRYKVRFGGRIQQEGKKTRWIETEEILGVAYDQIIPGYDTDATNTLRLWSAQASSEINLGKFNQGDYFAAVEDKNHSENVSRVLYPDDSTYSGRELRLRQEYFLVSSTIQDILSRHYQLHKTYDNLADKIAIHLNDTHPVLSIPEMMRLLIDEHQFSWDDAFEVCCQVFSYTNHTLMSEALETWPVDMLGKILPRHLQIIFEINDYFLKTLQEQYPNDTDLLGRASIIDESNGRRVRMAWLAVVVSHKVNGVSELHSNLMVQSLFADFAKIFPGRFTNVTNGVTPRRWLAVANPSLSAVLDEHLGRNWRTDLSLLNELQQHCDFPMVNHAVHQAKLENKKRLAEYIAQQLNVVVNPKALFDVQIKRIHEYKRQLMNVLHVITRYNRIKADPDAKWVPRVNIFGGKAASAYYMAKHIIHLINDVAKVINNDPQIGDKLKVVFIPNYSVSLAQLIIPAADLSEQISLAGTEASGTSNMKFALNGALTIGTLDGANVEMLDHVGADNIFIFGNTAEEVEELRRQGYKPREYYEKDEELHQVLTQIGSGVFSPEDPGRYRDLVDSLINFGDHYQVLADYRSYVDCQDKVDELYELQEEWTAKAMLNIANMGYFSSDRTIKEYADHIWHIDPVRL [P0AC86] | 6.11 ± 0.49 | 5.45 ± 0.2 | 5.71 ± 0.2 | 5.65 ± 0.26 | 5.54 ± 0.24 | 3.18 ± 0.28 | 5.27 ± 0.13 | 10.1 ± 0.57 | 5.448 ± 0.0098 | 10.1 ± 0.65 | 6.01 ± 0.15 | 11.9 ± 1 |
| MNAVTVNDDGLVLRLYIQPKASRDSIVGLHGDEVKVAITAPPVDGQANSHLVKFLGKQFRVAKSQVVIEKGELGRHKQIKIINPQQIPPEIAALIN | 5.38 ± 0.38 | 4 ± 0.27 | 4.49 | 5.14 | 4.22 | 2.88 ± 0.76 | 5.35 | 8.02 | 3.58 | 6.29 ± 0.45 | 4.68 ± 0.4 | 8.89 ± 0.44 |
| MNDLFSLAGKNILITGSAQGIGFLLATGLGKYGAQIIINDITAERAELAVEKLHQEGIQAVAAPFNVTHKHEIDAAVEHIEKDIGPIDVLVNNAGIQRRHPFTEFPEQEWNDVIAVNQTAVFLVSQAVTRHMVERKAGKVINICSMQSELGRDTITPYAASKGAVKMLTRGMCVELARHNIQVNGIAPGYFKTEMTKALVEDEAFTAWLCKRTPAARWGDPQELIGAAVFLSSKASDFVNGHLLFVDGGMLVAV [P0A9P9] | 7.23 | 3.69 | 2.75 | – | 2.46 | 2.53 ± 0.38 | 4.78 ± 0.49 | 7.912 ± 0.017 | 3.01 | – | 4.98 ± 0.91 | 6.82 ± 0.6 |
| MNDTSFENCIKCTVCTTACPVSRVNPGYPGPKQAGPDGERLRLKDGALYDEALKYCINCKRCEVACPSDVKIGDIIQRARAKYDTTRPSLRNFVLSHTDLMGSVSTPFAPIVNTATSLKPVRQLLDAALKIDHRRTLPKYSFGTFRRWYRSVAAQQAQYKDQVAFFHGCFVNYNHPQLGKDLIKVLNAMGTGVQLLSKEKCCGVPLIANGFTDKARKQAITNVESIREAVGVKGIPVIATSSTCTFALRDEYPEVLNVDNKGLRDHIELATRWLWRKLDEGKTLPLKPLPLKVVYHTPCHMEKMGWTLYTLELLRNIPGLELTVLDSQCCGIAGTYGFKKENYPTSQAIGAPLFRQIEESGADLVVTDCETCKWQIEMSTSLRCEHPITLLAQALA [P0A996] | 6.38 | – | – | – | – | – | – | – | – | – | – | – |
| MNEFFPLASAAGMTVGLAVCALIVGLALAMFFAVWESAKWRPVAWAGSALVTILRGLPEILVVLFIYFGSSQLLLTLSDGFTINLGFVQIPVQMDIENFDVSPFLCGVIALSLLYAAYASQTLRGALKAVPVGQWESGQALGLSKSAIFFRLVMPQMWRHALPGLGNQWLVLLKDTALVSLISVNDLMLQTKSIATRTQEPFTWYIVAAAIYLVITLLSQYILKRIDLRATRFERRPS [P0AE34] | 7.86 | 6.25 | 6.66 ± 0.82 | 6.45 | – | 2.92 ± 0.51 | 6.02 ± 0.79 | 11.9 ± 0.15 | – | 11.5 ± 2.6 | 6.78 | 12.3 ± 0.57 |
